Test results published in paper doi:10.1101/2025.02.01.633781.

Molecular target: FUS (recombinant, produced in-house) (UniProt P35637 1-526)
Assay: EMSA

Sequence of FUS (recombinant, produced in-house) (P35637 whole entry): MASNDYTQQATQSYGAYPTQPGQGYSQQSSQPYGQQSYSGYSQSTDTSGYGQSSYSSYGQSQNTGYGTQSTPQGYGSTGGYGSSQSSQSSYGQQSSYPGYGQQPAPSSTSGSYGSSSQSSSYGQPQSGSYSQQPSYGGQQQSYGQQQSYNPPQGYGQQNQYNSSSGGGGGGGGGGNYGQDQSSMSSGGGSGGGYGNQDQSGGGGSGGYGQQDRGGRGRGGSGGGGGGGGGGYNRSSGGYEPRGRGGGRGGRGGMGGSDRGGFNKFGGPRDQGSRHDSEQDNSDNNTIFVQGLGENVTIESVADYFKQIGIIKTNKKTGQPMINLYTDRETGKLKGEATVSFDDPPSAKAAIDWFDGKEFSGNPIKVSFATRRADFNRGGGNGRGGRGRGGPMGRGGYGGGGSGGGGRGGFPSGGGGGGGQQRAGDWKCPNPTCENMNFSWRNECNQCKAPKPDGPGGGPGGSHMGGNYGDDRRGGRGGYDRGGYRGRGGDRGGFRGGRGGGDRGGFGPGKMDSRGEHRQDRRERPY

Binder: GGACUCGGACUUGGACUCUGGACUUUGGAC (ssRNA) [4xDRACH]
- binding result: binds
